# Laboratory results published in article PMC11151819.
# Target: BIR3 domain of XIAP (human) (UniProt P98170)
# Test: SEC
substance,measurement,value
BIR3 domain of XIAP (from UniProt P98170 241-356) (domain or fragment),stoichiometry N,2
